Laboratory results reported in the DeepSol protein solubility set.

Assay: soluble on expression in E. coli; label from the status in PepcDB or PDB records

| Sequence | soluble on expression in E. coli |
| --- | --- |
| MSLYPDDSLTLHTDLYQINMMQVYFDQGIHNKKAVFEVYFRQQPFKNGYAVFAGLERIVNYLEDLRFSDSDIAYLESLGYHGAFLDYLRNFKLELTVRSAQEGDLVFANEPIVQVEGPLAQCQLVETALLNIVNYQTLVATKAARIRSVIEDEPLMEFGTRRAQEMDAAIWGTRAAVIGGANGTSNVRAGKLFDIPVLGTHAHALVQVYGNDYEAFKAYAATHKNCVFLVDTYDTLRIGVPAAIQVARELGDQINFMGVRIDSGDIAYISKKVRQQLDEAGFTEAKIYASNDLDENTILNLKMQKAKIDVWGVGTKLITAYDQPALGAVYKIVAIEDETGQMRNTIKLSNNAEKVSTPGKKQVWRITSREKGKSEGDYITYDGVDISYMTEIKMFHPTYTYIKKTVRNFDAVPLLVDIFKEGILVYNLPSLTDIQDYARKEFDKLWDEYKRVLNPQHYPVDLARDVWQDKMDLIDKMRKEALGEGEEEEGHHHHHH | soluble |
| RENRNGDLYSLIYGTVSSEAIDPVEKKPLYHFFPGSYVYSVGTIGCNFRCKHCQNWSISQVCLEDAYTKDILPEELVERALLSDSKSIAWTYNEPTIWHEYTYESAKLAKEAGLGTIYVTNGYMTPESLKHIAPYLDAANIDIKAFNEKFYHDIASAKLAPVLEASALAKELGIHVEITTLIIPGVNDSLDELRELSKWVYKNLGPDTPLHFTRFHPQYKMQDLSPTPVKTMENACKIATEEGMKYVYMGNV | not soluble |
| MGSDKIHHHHHHVGAGGRDVVWTPRSLYLTDFIHANLLEKLKMQTLIIYSTIDGQTLAICQKIKLFAEQAGENVSLVTLEQAEALSLADFDKVLIGASIRYGKYRPELYQFVNRHHAVLDTKINGFFSVNVVARKPLKNTPETNPYMQKFLKLSLWQPQHLAVFAGKIDYPKYSFFDRTMIRFIMWMTKGPTDINGTFEFTDWAKVDAFGTDFSHQ | not soluble |
| MNEPSACSGPPVKSKSSKNEPFYTLKALLPPYSEIQGNHDLLMSYELGPVEGGFSGSRRVKEKISSFLPHIIGEFHLDATKEASSLRALIEKPPIHKEISNLTSSSMQGFKLSAGPVDERYRHLFERRKEEPNLAYSEKLNLIRVRQQYDAYGFDDDETEKGFPKKHKKKKKDKKRKKEKEELGDAEKRKRAADEPMEF | not soluble |
| GEFGDEDLEELCPVCGDKVSGYHYGLLTCESCKGFFKRTVQNNKRYTCIENQNCQIDKTQRKRCPYCRFQKCLSVGMKLEAVRADRMRGGRNKFGPMYKRDRALKQQKKALIR | soluble |
| NEFELGTRGSSRVDLQEQRSVKTRVSLDDLFEQIKQGEMKELNLIVKADVQGSVEALVAALQKIDVEGVRVKIIHAAVGAITESDISLATASNAIVIGFNVRPDANAKRAAESEKVDIRLHRIIYNVIEEIEAAM | soluble |
| MSLLFASLLKNRLRLGQLTMIDAKGQTHVLGGDGPGPRVTIRLTDPSLHRRLFLRPHLAIGEAYMEGTLIIERGGLRDFLELIGANLAAIEGSPWVALGQRLSGLMRRLQQRNPVWRSRRNVAHHYDLSGAFYDLFLDSDRQYSCAYFARDGDSLEQAQDNKKRLIAAKLMLRPGQHVLDIGCGWGGLALHLARHHDVRVTGITLSQEQAALARERVRAAGLQDRVTILLKDYRDLDGRFDRVVSVGMLEHVGAPQLADYFRHVGGLLSDDGVALIHSIGRMEPPGSTNVWIRKYIFPGGYSPALSETLAAVEGSGLYLTDAEILRLHYARTLAEWTRRFQANREAARALYDERFCRMWEFYLLGCEMAFRHGNQMVFQLQLARREGHHHHHH | soluble |
| MGSDKIHHHHHHMLKFLKDSKVDFTVRCCGVSSIPCALFFLTRSTNRTYSILVKEWKNIEKLLDPFFTKGIDQLSMVDALRILMRIGDTLNGVRNHERLYRYIDSLFPAQKIPGGLEIWAFDLFEGKEVVFKEGDDLRRALKISLSFPILYRPYEDRYVPITWITGVPEGELTVLFDVKKEKNPPRNALEYLFLSTTARTKHLERERIKKAKSLRIACTSLSPVSTTRRAYEEFSRFFEEVVL | not soluble |
| MVVLKVTLLEGRPPEKKRELVRRLTEMASRLLGEPYEEVRVILYEVRRDQWAAGGVLFSDKEGT | soluble |
| MEFRRKCSRSAMRHKSQKRRAMPNQDVEKVNEIFKFPRISEQALMDGILKISCIASFKNGNQRCFEGSIYVKELCGLRNGTKVFKFIELANIRLYSIDEEDEIPEYDWIISV | not soluble |
| MRKQFLIAHRGYSTIAPENTHLAFAAAQLFGFDGLWMEVQLTKDKQIVVTNLDNYKVGNKTHKLSDINLVNLKKINLAKQFKVNVQEQTILTLKEVLMEFLTPFRFLLLFIKGEEEQQNQVLVEQLAQLLEGFELAKEKLILLSSHFSTIKYLNEKLKSFKTSFVFNSKKQLVHLTKDEITQNCRFLAPNDSFYHKNCAELQSYGLPIILWVIKGLLRYQFYENDRFVKFQIAAQLY | soluble |
| MNPERQETISPKNVPFQPVPTPNQQSLQSRMLESNQAVPDAFQKVAAWNHYNAVATPPIGVPQTARPPSNQSPHPNPPGYPYQSHQQQFHPLAIAFQQPFGLPQQVIYPPPPPGFTPHRVQVSPVGLLGPPGFFPQFAGSTTSQGNPSEVSVRTKSAEGTTGPIAPSITTKPTSTIQVAPPRDPVAPTTSSSGITKKPENGEFSLVKTISGHTKSVSVIKFSYCGKYLGTGSADKQIKVWNTVDMTYLQTLASHQLGINDFSWSSNSQFIASASDDTTVKIFDVISGACLRTMRGHTNYVFCCSFNPQSSLIASAGFDETVRVWDFKTGLCVKCIPAHSDPITSISYNHDGNTMATSSYDGCIRVWDAASGSCLKTLVDTDHAPVTFVCFSPNGKYLLSAQLDSSLKLWDPKKAKPLKYYNGHKNKKYCLFANMSVPLGKHIISGSEDGRILVWSIQTKQIVQILEGHTTPVLATDSHPTLNIIASGGLEPDNVIRIWRRN | not soluble |
| MSLRAQSTNTIGVLVSRISNPFFAQLFDALERELNGYGFQVMVMQTHDDALAEQHFLDKLKQQQVDGVILASIENQQLVAQLSATYANQMVLLNEEATDIGIPMISLNHYQATKDALAYLYHQGHRRIAYATGGDFPSTHHGRSRTQAYLDFCEEQQLVVNNNWVFAQQHTIADGQALGKQLASLNPSDRPTAVFTNSDEVAVGVIDELQQQHFRVPDDMAVMGYDDQPFAAVAQVPLTTVRQPVAAMAQLAVDQLLHHLGRLQRPELAIDLSLDLIKRKSAEGHHHHHH | soluble |
| MSLTDIKMIALGGVREYGKNFYLVEINDSMFILDAGLKYPENEQLGVDLVIPNLDYVIENKGKVQGIFLSHGHADAIGALPYLLAEVSAPVFGSELTIELAKLFVKSNNSTKKFNNFHVVDSDTEIEFKDGLVSFFRTTHSIPESMGIVIGTDKGNIVYTGDFKFDQAAREGYQTDLLRLAEIGKEGVLALLSDSVNATSNDQIASESEVGEEMDSVISDADGRVIVAAVASNLVRIQQVFDSATAHGRRVVLTGTDAENIVRTALRLEKLMITDERLLIKPKDMSKFEDHELIILEAGRMGEPINSLQKMAAGRHRYVQIKEGDLVYIVTTPSTAKEAMVARVENLIYKAGGSVKLITQNLRVSGHANGRDLQLLMNLLKPQYLFPVQGEYRDLAAHAKLAEEVGIFPENIHILKRGDIMVLNDEGFLHEGGVPASDVMIDGNAIGDVGNIVLRDRKVLSEDGIFIVAITVSKKEKRIISKAKVNTRGFVYVKKSHDILRESAELVNTTVGNYLKKDTFDWGELKGNVRDDLSKFLFEQTKRRPAILPVVMEVREGHHHHHH | soluble |
| MVRVEDSNGADTDTNPEGESSGYVRLAGNGLPGGEQQQASSSGVAAAPSVDSSPGRSVPLAIASSSSPANVANNQYAIPVDENGHRYVGLVNQAMTCYLNSLVQSLYMTPEFRNAMYDWEYVQQPAHIKEQRKKAEQSIPCQLQKLFLLLQTSENDSLETKDLTQSFGWTSNEAYDQHDVQELCRLMFDALEHKWKGTEHEKLIQDLYRGTMEDFVACLKCGRESVKTDYFLDLPLAVKPFGAIHAYKSVEEALTAFVQPELLDGSNQYMCENCKSKQDAHKGLRITQFPYLLTIQLKRFDFDYNTMHRIKLNDKMTFPDVLDLNDYVNKEKRSTTSSAWQQIGKNKSENEEDDMELGSPNPKRCTPGVQSPNRYQGSENVCVGQPIDHAAVDDIVKTSGDNVYELFSVMVHSGNAAGGHYFAYIKNLDQDRWYVFNDTRVDFATPLEIEKSFGGHPSGWNQSNTNAYMLMYRRIDPKRNARFILSNQLPQHIKDSQEKWKRLEREAEDERLRKLSLIQVYVTINYPFPSVVTLPDKKQLDLTPQKYQIAEDFGEYKTEISREMPIKNVFNHAFEFFNERARAYNLPFTKNSARLIYVEHGSLMMDFKSKADMDKKLRSVFNVNHGEPGSMYGVHFILDVRIASSFFPVDIKNKITIKVQRVDIGKKTTANELIVVVDANEKMIKVKSWIGGQFRDDIHGVLNARVVLEVASSRCEFMMIDVSHNATEFGSLIQQYVGHTTPTLYYDGGLNTMVTKESQEATLADRKLPFDKSVMYHILDRKCFSTMVKVRLPSQEEIEKAASTKNAYQGPTWAETIAIMKEEDRLWNEPRAAVEVMSTVSRTDTTDHALVADTDDEPIPSGRGSTASMRSVSMDDIDADIGISGSLCNNTPQMSPCVSEGDDADESQLDGKSQLMSDYMQKTSPDFYYNRDPQNHLNKNLKIALGDETPSESLSAVSSGQSTLVPSTSNQALSSMTRSDEAVDGKIVTVFSHENFHKLDVDSRMRVLEFKKWVAEQLEMDKDQFVIVKHASDDGSDSGYEANFMDDETVSGAFQSCFISIKLRAPLKSDEKMMQIILFDILENLRENWKPLFELPVSQSTVIGDVLLQCLRMYKEVYGEELTPKMVRLRELGGSGVGTGRAVLNPNDTLEKRSYNWCSHLYLQIITDEAMIGKPGEPIMVRRFRPSTVEVNPTHEVLVDANAENPVVSFVEALSKISGIPVERLAITDLKEFNWQKWPYLKSRLDMLENKVNFTKDLQVTYPLPREFLDKVGSRVLYYKDSDEEAKVLSEDERKQIKIKENGQSANANRRKERPLRIQMSSVCEA | not soluble |
| MQKELFRQSPDSNKLILFFNGWAMTREAVSHLAIPPEYDLLHVWDYRTDTLHFDWSPYREICLSAWSMGVWAAERLSREGRLPSVVSAVAICGTGYPMDDTMGIPLDIFRGTLDGLTEENRLRFNRRMCGGKSLKHLLEALAARETDEIKAELGRVYEEEEKRLKSDDPHPVAPLSWDKALIGAKDRIIPAKNQQAFWQMRGCRNIETVAEGDHYLFNRFTEWEQLWS | not soluble |
| MSLELTTQDIQLQQHFANKQAAIQGLAHALTAKGLVAEGYAQGMLNREAQHSTYLGNGIAIPHGTTDTRELVKQTGVTAMHFPQGLDWGDGNLVYVAIGIAAKSDEHLGILKQLTRVLSADGVEQALQQAKTAQQIIAIIKGEAQLTADFDASLIQLQFPASDMVQMSAVAGGLLKNTGCAENEFVADLVTKAPTHLGRGLWLVASDRAVKRTGMSIVTTANHCEYEQQAVKALIAFSVCNDVHQPLLNTITQCVFEQKQDQLLQADVQQLLNLFSGNAEQTIAQRTIAVGTITEETIAAETVAEPDSARAHTATFRIKNSHGLHARPGAMLVAEAKKFESNIRVSNLDGDGQVVNAKSLMKVIALGVKHNHQLQFTAEGPDAEAALQALGVAINAGLGEGHHHHHH | soluble |
| MGSDKIHHHHHHVTVSAFVLLLCRRAIVTLDSTPAFSTDPELICFSSRFQDEMEMYAPAEVVAHYLDRHEEWFRRCAEPMATTSIGKDAYAIVLGRYGSLGFEVEPQIGLELLPADQGVYRICTVPVPGYESQGYQVDFQASLSLDRLTHETEAPVTEATAVAWDLLLTVGIRLPRFIHVLPQKLVHSTGDHLLRQIVRQTSRRLTHRVQEDFHQQLNLPLPPRRHARF | not soluble |
| MSQRVSYYEIAPEGMKIMMDMEKYTKQSSINRTTRELIKIRVSQMNGCAFCIDMHTSDARKMGETEQRIYCLHAWNECDFYSPEEKAALELSEHITLIPSKRVPDELYHRVREHYDEEQYVDLVLIINQINSWNRISIAMGNRAASK | soluble |
